Test system: MS2 coat protein
Experiment: apparent KD of MS2 coat protein; designed switch direction (-1 OFF switch, 1 ON switch): -1; higher = weaker reporter binding
Summary of the method: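 On Illumina chips, designed RNA switches with common flanks were made by stalled E. coli RNA polymerase. Titrations with SNAP-549-labelled MS2 coat protein, doubling from 0.7 or 1.5 nM to 3 µM, were done with no input, with 200 uM small-molecule ligand, or with an oligonucleotide input. Apparent KD is the median per design over clusters, from curve fits of normalised cluster fluorescence.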

[1] = input ligand: microRNA oligo, concentration not stated
[2] = Eterna round: R95, input ligand: FMN 200 uM
[3] = Eterna round: R95, input ligand: microRNA oligo, concentration not stated
[4] = Eterna round: R95, input ligand: none

Sequence	apparent KD of MS2 coat protein (input ligand: FMN 200 uM) [nM]	apparent KD of MS2 coat protein (input ligand: none) [nM]	apparent KD of MS2 coat protein [1] [nM]	apparent KD of MS2 coat protein [2] [nM]	apparent KD of MS2 coat protein [3] [nM]	apparent KD of MS2 coat protein [4] [nM]
GGCAGACAUGAGGAUCACCCAUGUGAGGAUAUGGUGCGAUCGUCGAUAGACGAUAGCACCAGAAGGCACAUGCC [Mat - Exclusion 1 - Eli Mod - D4] (Eterna round: R97, puzzle: Exclusion 1)	159	34.5				
AGGAUGAGAGGAUAUACAAACGGUCCCACAAUCUCACGGGCACAUGAGGAUCACCCAUGUAGAAGGCUCAUUGG [EX2 B.28] (Eterna round: R97, puzzle: Exclusion 2)	325	49.6				
CUCACGUCAGGAUAUCUACAUUAAAUUGGUAACCAAGCAUGAGAGAAGGGACAUGAGGAUCACCCAUGUAAAAC [Ceisusma] (Eterna round: R97, puzzle: Exclusion 4)	42.4	48.7				
GACGAAAGAGGAUAUACCGUACGACCCUCGUCAGGGAUCCGACAUGAGGAUCACCCAUGUAGAAGGCUUGCGUC [Eternabot (Original) Solution 25] (Eterna round: R97, puzzle: Exclusion 2)	763	200				
AGUUGUUGCGUAGGAUAUGAGGAUCACCCAUAGUAGGAUAACGAAAGUGAAGGACUGAGGAUUACCCAGAAGGACGUGAUGACA [pwkr exNG2 2xF5 2xFMN.6] (Eterna round: R96, puzzle: Exclusion NG 2)	602	193	234			
CAGCUGAAAGUCAGGAUAUCUAGAGCCUCGGCUCUAGAGAAGGGACAUGAGGAUCACCCAUGUGGUCACAGCUG [BmEx4/5-A2] (Eterna round: R97, puzzle: Brourd's mod of Exclusion 4)	93.5	619				
AGUCCUAGUCAAGGAUAUACACCGAAGAAAUACGUAGAAGGUGACAUGAGGAUCACCCAUGUAGGGACUCUGGAAACAGAGGAA [Arordi] (Eterna round: R96, puzzle: Exclusion NG 1)	161	218	93.4			
GUCGUGCGGCUUUGCUGUACGAGUACAUGAGGAUCACCCAUGUAGGAUAUGGUUCGUUUUGCGUGCUAGAAGGGCGUGCGUUUU [Excl-NG3-LRO16] (Eterna round: R96, puzzle: Exclusion NG 3)	22.4	22.1	17.3			
CGAUGUUAUGUCAGGAUAUGCGUUGCGAAAGCAAUGUAGAAGGGACAUGAGGAUCACCCAUGUCCUAACCAUCG [Omei A 8] (puzzle: Brourd's mod of Exclusion 4)				15.1	13	13.5
UAAGUUUUGGUAGGAUAUACUUUAAAUUUCUCUAUCCAUACAUGAGGAUCACCCAUGUUUACAUUGUAGAAGGACCACUAUGUU [JR_ExcNG2_Sub056] (Eterna round: R96, puzzle: Exclusion NG 2)			18.7			
CUCGUGCGGCUUUGCUGUGCGGGUACAUGAGGAUCACCCAUGUAGGAUAUGGUGCGCUUUGCGUGCCAGAAGGGCGUGCGUUGG [salish99_ExNG3_r04_011] (Eterna round: R96, puzzle: Exclusion NG 3)	36.6	27.3	27.1			
CCUCCGCAUUAGGAUAUCGUCCCGGAAACGGGACGAGAAGGAAUGACAUGAGGAUCACCCAUGUUAACGUGAUG [Mod of Brourd 18 - Jieux - Exclusion 6] (Eterna round: R97, puzzle: Exclusion 6)	304	48.2				
AGCCUAGCAGGAUAUGCCCGGGAUAACAUGAGGAUCACCCAUGUGACUGAUUGAUGUCCUGCAGAAGGGCUAGGGA [JL-EX5-4.01 ViennaUCT mod] (Eterna round: R97, puzzle: Exclusion 5)	154	25.9				
CCAAUCAGAGGAUAUGCGAAUAAAUAAAACUUUUUUUUUUAACAUGAGGAUCACCCAUGUAGAAGGCUGUAACC [Ex2 #43] (Eterna round: R97, puzzle: Exclusion 2)	31.5	25.4				
GAGUGGCAAGGAUAUACAGAGGAGAGGAAGGCAAGAGGUGGACAUGAGGAUCACCCAUGUAGAAGGUGCAGAGG [JR_Exclu2_Sub025] (puzzle: Exclusion 2)				157	134	288
CGCCUGUUAGGAUAUUAGUAGUAGUCAGAAUAGACUAUUACUGAGAAGGAACAUGAGGAUCACCCAUGUUGGCG [Eli x4 4.13] (Eterna round: R97, puzzle: Exclusion 4)	19.9	15.5				
GUUAAACAUGAGGAUCACCCAUGUAAGGAUAUGCUGAGGUCGCGCUGACGUGAAUGAAGCAGAAGGUACAAAUG [Mat - Mod of JL D63] (puzzle: Exclusion 1)				79.5	76.7	60.8

Sequence	apparent KD of MS2 coat protein (input ligand: FMN 200 uM) [nM]	apparent KD of MS2 coat protein (input ligand: none) [nM]	apparent KD of MS2 coat protein [1] [nM]	apparent KD of MS2 coat protein [2] [nM]	apparent KD of MS2 coat protein [3] [nM]	apparent KD of MS2 coat protein [4] [nM]
CAGUACUGAGGAUAUACAUGAGGAUCACCCAUGUGUUCCAGCUAGGAAACUAGCAAAAGUAGAAGGCUGUACUG [salish99_ex3_r3_088] (puzzle: Exclusion 3)					17.9	
GUUGUGUUAGGAUAUAACAACUACUAAUAAAUUAGUAGUUGUUAGAAGGAACAUGAGGAUCACCCAUGUAUGAC [-21.3, -20.2 kcal, A 36%] (Eterna round: R97, puzzle: Exclusion 4)	52.5	30.5				
AGGUAACAUGAGGAUCACCCAUGUCAGGAUAUCAGUAAGAUGAGUAUAGAAGAGAGUAUGAGAAGGGACUAUAU [Excluse me! 25 - Jieux - Exclusion 1] (puzzle: Exclusion 1)					31.2	
AGUACUAUGCGAGCUGACUUGCGUAGUGCAGCAGGUGAAACAUGAGGAUCACCCAUGUCCUCAUUUGCUCGUCUUAA [Mat - Sensor v3 - Turn-off var 2 - D3] (puzzle: Sensor v3, turn-off variant 2)				39.7	563	38
AAAUUGUGAGGAUAUCCAAUAUAUGACAUGAGGAUCACCCAUGUUUCCACUCGUACCUCCGGAGAAGGCACUUAAA [Ex5 #44] (Eterna round: R97, puzzle: Exclusion 5)	27.1	25.5				
UAAUAUCUGCAGGAUAUCGGUGGAGCACACGUAUGAGAAGGGCAGACAUGAGGAUCACCCAUGUAUAGGGUCCG [BotMod 3 - Jieux - Exclusion 6] (Eterna round: R97, puzzle: Exclusion 6)	136	37.7				
CCGAAGUGGCGGUCCUAUGACAUGAGGAUCACCCAUGUACUUCGCCACGAGCUUUUUGCUCGUCUUAUAGUUCUCGG [Sensor v3, turn-off variant 1 (MOD of Ator)] (puzzle: Sensor v3, turn-off variant 1)				435	32.4	504
AGUAUUCGAGGAUAUACGUGCCAAUGAUCCAUGAGACUCCUACAUGAGGAUCACCCAUGUAGAAGGCGAAAACC [Eternabot (L1) Solution 99] (Eterna round: R97, puzzle: Exclusion 2)	19.1	15.9				
CCGGAUAUGCAGGAUAUCGUAACGGAAACGUUACGAGAAGGGUAUACAUGAGGAUCACCCAUGUGUCCUACCGG [Mat - Exclusion 6 - Eli Mod - D86] (puzzle: Exclusion 6)					21.1	
GGAUAGUGAGGAUAUCGAUGUUAGGAGGAGGAGGUAGGAGGCGAGAAGGCACAUGAGGAUCACCCAUGUAUGGU [JR_Exclu4_Sub069] (puzzle: Exclusion 4)					28.2	
UCUAGUUCAGGAUAUGUAGAUUUUAACAUGAGGAUCACCCAUGUAGAUCCUGAAUUAGCUACAGAAGGGAACAUUU [Mod of Brourd 2 - Jieux - Exclusion 5] (Eterna round: R97, puzzle: Exclusion 5)	18.1	13.3				
CAGUACUGAGGAUAUACAUGAGGAUCACCCAUGUGGUUUAGUGCACGCGUACGUGUACGUAGAAGGCAGUACUG [JL 3.27 m8] (Eterna round: R97, puzzle: Exclusion 3)	78.3	18.9				
AACAAGCUUUAAAGAUCCUACAUGAGGAUCACCCAUGUGCUCGUCUUGUAACGUACUGUGACGAAAGUCACGGUACG [JL TOV1 3.27] (Eterna round: R97, puzzle: Sensor, turn-off variant 1)	205	278				
ACAUGAGGAUCACCCAUGUAAUCAUGAUGGCUGAUGUAGACUCAGGAUAUGUGUGGCUUUCUAUCACAGAAGGGAGAAGACUGG [Deportation 37 - Jieux - Exclusion NG 3] (Eterna round: R96, puzzle: Exclusion NG 3)	59.7	129	116			
GGUUGGCGAGGAUAUACAUGAGGAUCACCCAUGUGGUCCUGAGAUAGAAUAGCCCUUUGUAGAAGGCGCGGGUC [salish99_ex3_r4_044] (Eterna round: R97, puzzle: Exclusion 3)	203	166				
CUUUUGUGAGGAUAUUAAUAGUAAGUAAAUAAAAUUAUUACUAAGAAGGCACAUGAGGAUCACCCAUGUUCCUC [EX4 #82] (Eterna round: R97, puzzle: Exclusion 4)	102	63.4				
GUUUUACAUGAGGAUCACCCAUGUGAGGAUAUGUUAUUAAUAGCGAUAGUUAUUGGUGGCAGAAGGCGCGUGAU [JR_Exc1_Sub011] (Eterna round: R97, puzzle: Exclusion 1)	343	82.6				
